The source of these data is US20250250357A1 (NANJING ZAIMING PHARMACEUTICAL, published 2025).

The target in assay [1] is T1, human MSLN-hFc protein (Acro, Cat. No. MSN-H5253) (human, UniProt Q13421 296-580).
T1 construct: bought
In words: ELISA, coated human MSLN-hFc.

Assay [2] has as its target T2, human MSLN-FL-his protein (human, UniProt Q13421 296-580).
T2 construct: also called hMSLN-FL-his; human MSLN full-length protein
In words: SPR (Biacore), antibody captured on Protein A, MSLN-FL-his injected. (SPR reads the build-up and loss of mass on a sensor chip optically.)

Assay [3] addresses T3, human MSLN-R3-his protein (human, UniProt Q13421 487-598).
T3 construct: also called hMSLN-R3-his; not shown: His tag
Kind of assay: ELISA; antibody 10 nM. Background: ELISA stands for enzyme-linked immunosorbent assay.

In assay [4] the target is T4, human MSLN-R2-his protein (human, UniProt Q13421 391-486).
T4 construct: also called hMSLN-R2-his; not shown: His tag
In words: ELISA; antibody 100 nM.

Assay [5] has as its target T3, human MSLN-R3-his protein. Kind of assay: ELISA; antibody 0 nM (blank).
For assay [6], the target named is T5, human MSLN-R3-3 polypeptide (human).
T5 construct: also called hMSLN-R3-3
In words: ELISA; antibody 1 nM.

For assay [7], the target named is T3, human MSLN-R3-his protein. Kind of assay: ELISA; antibody 1 nM.
The target of assay [8] is T4, human MSLN-R2-his protein. In words: ELISA; antibody 1 nM.
Assay [9] concerns the target T3, human MSLN-R3-his protein. Kind of assay: ELISA; antibody 0.01 nM.
Assay [10] concerns the target T3, human MSLN-R3-his protein. In words: ELISA; antibody 0.0001 nM.
Assay [11] concerns the target T4, human MSLN-R2-his protein. In words: ELISA; antibody 10 nM.
The target of assay [12] is T4, human MSLN-R2-his protein. Kind of assay: ELISA; antibody 0.001 nM.
Assay [13] has as its target T3, human MSLN-R3-his protein. Kind of assay: ELISA; antibody 100 nM.
In assay [14] the target is T4, human MSLN-R2-his protein. In words: ELISA; antibody 0.0001 nM.
Assay [15] has as its target T4, human MSLN-R2-his protein. Kind of assay: ELISA; antibody 0.01 nM.
The target of assay [16] is T3, human MSLN-R3-his protein. Kind of assay: ELISA; antibody 0.001 nM.
Assay [17] deals with T3, human MSLN-R3-his protein. In words: ELISA; antibody 0.1 nM.
The target in assay [18] is T3, human MSLN-R3-his protein. In words: ELISA; antibody 1 nM. This is another data set of the same source.
The target of assay [19] is T4, human MSLN-R2-his protein. Kind of assay: ELISA; antibody 0 nM (blank).
Assay [20] deals with T4, human MSLN-R2-his protein. Kind of assay: ELISA; antibody 0.1 nM.
Assay [21] addresses T4, human MSLN-R2-his protein. In words: ELISA; antibody 1 nM. The source holds these as a separate data set.
The target of assay [22] is T6, human MSLN-R3 on HEK293T-hMSLN-R3 recombinant cells (human, UniProt Q13421 487-606).
T6 construct: the C-terminal limit is uncertain; also called human MSLN-R3 membrane protein
In words: FACS, HEK293T-hMSLN-R3 cells.

Assay [23] deals with T7, monkey MSLN on HEK293T-monkey MSLN recombinant cells (monkey).
T7 construct: Full-length precursor as transfected; processing on the cell is not described; also called HEK293-monkey MSLN
T7 chain: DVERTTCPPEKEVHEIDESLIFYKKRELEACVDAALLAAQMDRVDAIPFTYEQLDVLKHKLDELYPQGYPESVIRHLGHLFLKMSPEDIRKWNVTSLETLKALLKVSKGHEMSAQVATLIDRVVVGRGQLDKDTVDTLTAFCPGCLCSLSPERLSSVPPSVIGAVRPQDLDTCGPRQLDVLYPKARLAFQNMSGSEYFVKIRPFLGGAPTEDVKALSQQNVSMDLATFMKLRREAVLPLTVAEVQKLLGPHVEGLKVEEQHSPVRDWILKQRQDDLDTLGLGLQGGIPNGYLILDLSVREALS
Kind of assay: FACS, HEK293T-monkey MSLN cells. (In general: A flow cytometer gives signals particle by particle.)

In assay [24] the target is human MSLN on OVCAR3 tumor cells (human, UniProt Q13421 296-598). In words: FACS, OVCAR3 cells.
Assay [25] has as its target T8, human MSLN-FL-his protein (human, UniProt Q13421 296-580).
T8 construct: made in HEK293E cells, purified on nickel column; also called hMSLN-FL-his; human MSLN full-length protein; not shown: His tag
In words: competitive ELISA; row Tab142.

For assay [26], the target named is T8, human MSLN-FL-his protein. In words: SPR (Biacore), antibody captured on Protein A chip.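 Note: flow cell at 25 °C, antigen injected for 240 s at five concentrations from 200 nM downward, dissociation followed up to 600 s, double-referenced, fitted with Langmuir 1:1 model.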
For assay [27], the target named is T8, human MSLN-FL-his protein. Kind of assay: competitive ELISA; row Tab021.
The target in assay [28] is T8, human MSLN-FL-his protein. Kind of assay: competitive ELISA; row F7.2.3.
For assay [29], the target named is T8, human MSLN-FL-his protein. In words: competitive ELISA; row F7.18.10.

T4 sequence (Q13421 other isoform, or with tags, fused parts or gaps): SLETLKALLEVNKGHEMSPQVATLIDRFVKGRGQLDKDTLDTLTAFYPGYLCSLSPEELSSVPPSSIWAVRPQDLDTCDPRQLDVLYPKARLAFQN
T3 sequence (Q13421 495-606): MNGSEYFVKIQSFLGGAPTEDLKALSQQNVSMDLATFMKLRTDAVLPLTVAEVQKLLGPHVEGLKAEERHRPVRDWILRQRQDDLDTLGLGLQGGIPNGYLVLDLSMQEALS
T6 sequence (Q13421 495-614): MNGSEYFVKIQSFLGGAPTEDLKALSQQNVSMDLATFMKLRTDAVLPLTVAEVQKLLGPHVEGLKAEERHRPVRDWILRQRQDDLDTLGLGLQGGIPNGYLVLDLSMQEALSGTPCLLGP
Sequence of human MSLN on OVCAR3 tumor cells (Q13421 other isoform, or with tags, fused parts or gaps): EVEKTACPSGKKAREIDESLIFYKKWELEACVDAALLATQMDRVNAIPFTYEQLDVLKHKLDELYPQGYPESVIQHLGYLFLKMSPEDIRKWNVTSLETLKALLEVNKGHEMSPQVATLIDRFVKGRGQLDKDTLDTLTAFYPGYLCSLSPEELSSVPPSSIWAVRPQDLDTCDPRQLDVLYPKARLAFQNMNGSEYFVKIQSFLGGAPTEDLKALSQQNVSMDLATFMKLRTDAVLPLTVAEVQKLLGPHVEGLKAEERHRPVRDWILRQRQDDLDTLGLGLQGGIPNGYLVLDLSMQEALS
T1 sequence (Q13421 other isoform, or with tags, fused parts or gaps limits assumed): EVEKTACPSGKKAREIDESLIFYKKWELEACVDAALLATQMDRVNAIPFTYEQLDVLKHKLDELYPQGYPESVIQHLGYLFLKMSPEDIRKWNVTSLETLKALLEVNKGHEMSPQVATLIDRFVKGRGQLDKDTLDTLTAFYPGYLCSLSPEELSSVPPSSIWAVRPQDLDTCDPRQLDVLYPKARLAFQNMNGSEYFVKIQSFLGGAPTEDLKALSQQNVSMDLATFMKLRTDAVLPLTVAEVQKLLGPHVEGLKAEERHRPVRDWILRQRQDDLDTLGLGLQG

B1: F3.38.10-L2H3a (scFv, not shown: small tags and cut ends)
scFv: DIVMTQSPDSLAVSLGERATINCRSSQSLIHSDGNTYLQWYQQKPGQSPKLLIYKVSNRFSGVPDRFSGSGSGTDFTLTISSLQAEDVAVYYCSQTTHVPFTFGQGTKLEIKGGGGSGGGGSGGGGSEVQLVQSGAEVKKPGASVKVSCKASGYIFTDYYMNWVRQAPGQRLEWMGVINPKQGVISHNQKFKGRVTITVDKSANTAYMELSSLRSEDTAVYYCANYGSRFYAMDYWGQGTTVTVSS
As to B1, in [1], the binding result is listed as “no binding (tested: up to 100 nM)”.

B2: S009-F3.7.3 (antibody, human IgG1, kappa, V domains shown)
VH: EVNFEESGGGLVQPGGSMKLSCVASGFTFSNYWMNWVRQSPEKGLEWVAQIRLKSDNYATHYAESVKGRFTISRDDFKSSVYLQMNNLRAEDTGIYYCTVGTGGYWGQGTTLTVSS
VL: DIVLTQSPASLAMSLGKRATISCRASESVSIVGTNVIHWFQQKPGQPPKLLIYHASNLETGVPARFSGSGSGTDFTLTIDPVEEDDVAIYHCLQSRKIPWTFGGGTKLEIKR
notes: chimeric, human IgG1/kappa
For B2, the binding result in assay [2] is on record as “no binding”.

B3: S009-F3.16.1 (antibody, human IgG1, kappa, V domains shown)
VH: EVKFEESGGGLVQPGGSMKLSCVASGFTFSNYWMNWVRQSPEKGLEWVAQIRLKSDNYATHYAESVKGRFSISRDDSKSSVYLQMNNLRAEDTGIYYCSVGTGGYWGQGTTLTVSS
VL: DIVLTQSPASLALSPGKRATISCRASESVSIIGTDVIHWFQQKPGQPPKLLIYHASNLETGVPARFSGSGSRTDFTLTIDPVEEDDVAIYYCLQSRKIPWTFGGGTKLEIKR
notes: chimeric, human IgG1/kappa
Take B3: the binding result in assay [2] is given as “no binding”.

B4: F3.38.10-L1H5 (scFv, not shown: small tags and cut ends)
scFv: DIVMTQTPLSLPVTPGEPASISCRSSQSLIHSDGNTYLQWYLQKPGQSPQLLIYKVSNRFSGVPDRFSGSGSGTDFTLKISRVEAEDVGVYYCSQTTHVPFTFGQGTKLEIKGGGGSGGGGSGGGGSEVQLVQSGAEVKKPGASVKVSCKASGYIFTDYYMNWVRQAHGQRLEWMGVINPKNGVISHNQKFKGRVTITVDKSANTAYMELSSLRSEDTAVYYCANYGSRFYAMDYWGQGTTVTVSS
Consider B4, for which, in assay [1], the binding result was “no binding (tested: up to 100 nM)”.

B5: Tab020 (YP223, rabbitIgG1) (antibody, V domains shown)
VH: QEQLEESGGDLVQPEGSLTLTCKASGLDFSSSYWICWVRQAPGKGLEWIGCRHTFTANTWSASWVNGRFTISRSTSLGTVDLKMTSLTAADTATYFCARDESNNDGWDFKLWGPGTLVTVSS
VL: AYDMTQTPASVSAAVGGTVTIKCQASQSISNYLAWYQQKPGQPPKLLIYQASTLAPGVSSRFKGSGSGTEFTLTISGVECADAATYYCQQGYTSSNVENVFGGGTGVVVGD
notes: Control antibody; VH and VL recombined into rabbit IgG1 CH and CL expression vectors; also called YP223 rabbit IgG1 antibody; rabbit anti-human MSLN antibody
Consider B5, for which the OD450 nm was 0.05 in [3]; 2.5 in assay [4]; 0.05 in assay [5]; 0.09 in assay [6]; 0.05 in assay [7]; 1.49 in [8]. Further, the OD450 nm in assay [9] is 0.05; in assay [10], 0.05; in [11], 2.01; in assay [12] it was 0.05; in assay [13], 0.05; in [14], 0.05. Also, the OD450 nm in assay [15] turned out to be 0.07; in [16] it was 0.05; in assay [17], 0.05; in assay [18], 0.05; in assay [19] it was 0.05; in assay [20], 0.2. Besides, the OD450 nm in assay [21] was found to be 1.49.

B6: F7.33.24 (scFv)
chain: QVQLQQPGTELVKPGASVKLSCKASGYTFTSYWMHWVKQRPGQGLEWIGNVNPSNGGSNYNEKFKNKATLTVDKSSSTADMQLNSLTSEDSAVYYCAPHYIGSRPGFAYWGQGTLVTVSGGGGGSGGGGSGGGGSDIVMTQSQKFMSTSVGDRVSVTCKASQNVGTNIAWYQQKPGQSPKALIYSASYRYSGVPDRFTGSGSGTDFTLTITNVQSEDLAEYFCQQYNSYPLTFGGGTKVEIK
A word on the EC50: it is the concentration that produces a half-maximal response. With B6, the EC50 in assay [22] was 1.63 nM; in [23], 7.97 nM; in [24], 4.75 nM. Besides, the figures for the Maximum_MFI in assay [22], in assay [23] and in assay [24] were 1490 MFI, 8910 MFI and 2260 MFI, respectively.

B7: S009-F7.18.10 (antibody, human IgG1, kappa, V domains shown)
VH: QVQLQQSGAELVRPGTSVKVSCKASGYAFTNYLIEWVKQRPGQGLEWIGVINPGSGGTKYNEKFKGKATLTADKSSSTAYMQLSSLTSEDSAVYFCASDYDYDPFAYWGQGTLVTVSA
VL: DIVMTQSHKFMSTSVGDRVSITCKASQDVSTAVAWYQRKPGQSPKLLIYWASTRHTGVPDRFTGSGSGTDYTLTISYMQAEDLALYYCQQHYSTPYTFGGGTKLEIKR
notes: human-murine chimeric antibody, human IgG1/kappa constant regions
A word on the Kd: it is the constant that tells how readily two partners part at equilibrium. As a reminder, the koff is the first-order rate constant of dissociation. In general, kon refers to a measure of how fast the partners come together. Consider B7, for which the competition rate was 94.4% in [25], 9.2% in assay [27], -29.4% in assay [28] and 97% in assay [29]. Further, the Kd in assay [26] was found to be 0.64 nM. For the same molecule, in assay [26], the koff is 0.00117 s⁻¹. The molecule also came in with a kon in assay [26] of 1.83e+06 M⁻¹ s⁻¹.
